Conditions in all cases: both partners purified
Assay [1] addresses T1, unlabeled recombinant wild-type human histone H1.0 (human, UniProt P07305 1-194).
T1 construct: linker histone H1.0, human, H1F0 gene, UniProt P07305, wild type; also called linker histone H1.0; unlabeled H1; source: bought: New England Biolabs (cat. # M2501S)
In words: single-molecule FRET of freely diffusing molecules, competition titration; 50 pM labeled ProTα and constant unlabeled H1 (10 nM; also 1 µM and 20 µM in Fig. 2), unlabeled ProTα varied; TBS, 200 mM ionic strength; coupled binding equilibria fit.

Assay [2] concerns the target T1, unlabeled recombinant wild-type human …. In words: single-molecule FRET of surface-immobilized molecules; biotinylated labeled ProTα immobilised on neutravidin/PEG surface, nanomolar unlabeled H1 in solution; degassed TBS in D2O, 200 mM ionic strength, oxygen scavenger; two-state hidden Markov model of photon time traces.
Assay [3] shares this target. Nature of the assay: single-molecule FRET of freely diffusing molecules; 50 pM donor/acceptor-labeled ProTα titrated with unlabeled H1; fraction bound from transfer efficiency histograms; 10 mM TBS, 0.1 mM EDTA, 200 mM ionic strength (KCl), 140 mM β-mercaptoethanol, 0.01% Tween 20.

This is an account of results in paper PMC7661507, “Polyelectrolyte interactions enable rapid association and dissociation in high-affinity disordered protein complexes” (Nature Communications, 2020).

The Kd is the equilibrium constant for the complex coming apart. What is called koff is the first-order rate constant of dissociation. For orientation: kon means the second-order rate constant of association.

B1: unlabeled ProTα (natural protein, human, UniProt P06454 1-111, looked up)
chain: MSDAAVDTSSEITTKDLKEKKEVVEEAENGRDAPANGNAENEENGEQEADNEVDEEEEEGGEEEEEEEEGDGEEEDGDEDEEAESATGKRAAEDDEDDDVDTKKQKTDEDD
notes: prothymosin α (ProTα), human, PTMA gene, UniProt P06454; The main text calls it only 'unlabeled ProTα'; also called prothymosin α; source: E. coli C41, purified (IMAC, tag cleavage, RP-HPLC)
With B1, the dissociation constant (Kd) in assay [1] came out at 1.1 nM.

B2: Avi-Tag-ProTα E56C/D110C labeled with Cy3B/LD650 (natural protein)
chain: MSDAAVDTSSEITTKDLKEKKEVVEEAENGRDAPANGNAENEENGEQEADNEVDEECEEGGEEEEEEEEGDGEEEDGDEDEEAESATGKRAAEDDEDDDVDTKKQKTDEDC
modifications: biotin on Lys12 of the Avi-tag; Cy3B maleimide and LD650 maleimide on the cysteines at positions 56 and 110
With B2, in assay [2], the dissociation constant (Kd) is 1.2 ± 0.1 nM, the koff was found to be 1.7 ± 0.1 s⁻¹ and the association rate constant (kon) is 1.45e+09 M⁻¹ s⁻¹.

B3: ProTα E56C/D110C labeled with Alexa Fluor 488/594 (natural protein)
chain: SDAAVDTSSEITTKDLKEKKEVVEEAENGRDAPANGNAENEENGEQEADNEVDEECEEGGEEEEEEEEGDGEEEDGDEDEEAESATGKRAAEDDEDDDVDTKKQKTDEDC
modifications: Alexa Fluor 488 maleimide and Alexa Fluor 594 maleimide on the cysteines at positions 56 and 110
Take B3: the Kd in assay [3] is 0.73 nM.
